Laboratory results taken from paper doi:10.1101/2025.09.29.679115.

Assays:
[1] = target: T1, MBP-HSFA1d (Arabidopsis thaliana, UniProt Q9LQM7 1-485); test: EMSA
[2] = target: T1, MBP-HSFA1d; test: competition

T1 sequence (Q9LQM7 whole entry): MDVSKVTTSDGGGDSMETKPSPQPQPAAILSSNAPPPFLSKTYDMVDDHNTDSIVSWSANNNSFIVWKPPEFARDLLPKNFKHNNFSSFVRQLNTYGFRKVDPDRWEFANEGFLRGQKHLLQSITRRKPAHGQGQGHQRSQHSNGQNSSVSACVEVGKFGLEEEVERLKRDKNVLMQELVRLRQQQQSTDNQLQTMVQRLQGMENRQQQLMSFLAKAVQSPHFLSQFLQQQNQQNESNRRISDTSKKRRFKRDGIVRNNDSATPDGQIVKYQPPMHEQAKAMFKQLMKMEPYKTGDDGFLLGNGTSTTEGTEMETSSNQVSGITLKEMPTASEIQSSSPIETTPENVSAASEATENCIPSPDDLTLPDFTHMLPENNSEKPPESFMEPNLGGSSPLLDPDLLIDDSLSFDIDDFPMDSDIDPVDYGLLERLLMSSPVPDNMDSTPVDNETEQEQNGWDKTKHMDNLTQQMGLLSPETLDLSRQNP

B1: WIND1 promoter probe (dsDNA)
DNA 1: AATCCCTCCCTAAACCTCTAGAGAGTTCTATTAATTTTTG
DNA 2: CAAAAATTAATAGAACTCTCTAGAGGTTTAGGGAGGGATT
B1: binds [1].

B2: WIND1 unlabelled competitor (dsDNA)
DNA 1: B1 DNA 1
DNA 2: B1 DNA 2
B2: binds [2].

B3: WIND1_m probe (dsDNA)
DNA 1: AATCCCTCCCTAAACCTCTATGGGACCTTATTAATTTTTG
DNA 2: CAAAAATTAATAAGGTCCCATAGAGGTTTAGGGAGGGATT
B3: no binding [1].

B4: ZAT6 promoter probe (dsDNA)
DNA 1: AATTCTTATCACTTAAGAATATTCTAGAGAGCTCTCACTT
DNA 2: AAGTGAGAGCTCTCTAGAATATTCTTAAGTGATAAGAATT
B4: binds [1].
